Results from US8637043B2, “Compositions useful as ligands for the formyl peptide receptor like 1 receptor and methods of use thereof” (Chemocentryx, Inc., priority 2001, dated 2014).
“And” between values parts separate entries of the source, which are not always exact repeats. Identical values can stand only once.

How the values were obtained:
dendritic cells = assay: Dendritic cell infiltration after intradermal injection in mice (anti-DEC-205 staining); format: in vivo; design: key to Dendritic cell infiltration Score / Infiltration Score: 0 = none, 1 = slight, 2 = mild, 3 = moderate, 4 = severe
Description: The following chemokines were obtained from R&D Systems (Minneapolis, Minn.): vMCK-2, mC10, and GM-CSF. The following peptides were synthesized at Phoenix Pharmaceuticals (San Carlos, Calif.): SHAAYtide (SEQ ID NO:6), several […] MODIFIED peptides of SHAAGtide variant (SEQ ID NO:) (i.e. cyclized using the MPR-Cys linked cyclization), control peptide (SEQ ID NO:33, […]Gin Pro Gly lie Lys Arg Arg Trp Leu Met), randomly conjugated to OVA in either a 1:1 or 1:4 ratio (by MBS coupling method), and conjugated to OVA at the C-terminus (C-term, made by the addition of a cysteine), and SHAAGtide variant (SEQ ID NO:3). In three separate experiments, chemokines or peptides (2 μg or 20 μg in PBS) were injected intradermally into BALB/c or C57BI/6 mice (Jackson Laboratory; Bar Harbor, Me.). In each experiment, one mouse received an injection of PBS only as a negative control. At various times after injection, the mice were euthanized, and the area around the injection site was excised and subjected to immunohistology. Frozen sections were stained with anti-DEC-205 antibody (Bio-Whittaker Molecular Applications; Rockland, Me.) that recognizes a dendritic cell-specific molecule (Kraal et al., 1986). A relative staining number on a scale of […] was assigned to each section (0, none; 1, slight; 2, mild; 3, moderate; 4, severe).

mononuclear cells = assay: Mononuclear cell infiltration into the dermis after intradermal injection; format: in vivo, Rhesus macaques
Method: Different amounts (8, 20, or 60 μg in 100 μl PBS) of different polypeptides (see Table 18) were injected intradermally in Rhesus macaques under anesthesia. Twenty-four and 48 hours later, 6 mm skin punch biopsies were taken using aseptic technique and then bisected. One portion of the biopsy was embedded in OCT compound, flash frozen in liquid nitrogen and stored at −70° C. The other portion was immersed in formalin and embedded in paraffin wax; subsequently, sections cut on a microtome were stained with hematoxylin and eosin and then microscopically examined for cell infiltration into the dermis (Table 18). As a negative control, monkeys were injected with PBS lacking any polypeptides.
Mononuclear cell infiltration was scored on a scale of 0 to 5:0, very mild perivascular mononuclear inflammatory infiltration throughout the dermis; 1, a mild perivascular mononuclear inflammatory infiltrate seen throughout the dermis; 2, a mild/moderate perivascular mononuclear inflammatory infiltrate seen throughout the dermis; 3, a moderate perivascular mononuclear inflammatory infiltrate seen throughout the dermis; 4, an extensive perivascular mononuclear inflammatory infiltrate seen throughout the dermis; 5, a florid perivascular mononuclear inflammatory infiltrate seen throughout the dermis. intermediate scores are indicates, e.g., “⅔” represents a score between 2 and 3.

infiltrating cells = assay: Immunohistochemistry of infiltrating cells in injected skin samples; format: in vivo, Rhesus macaques; conditions: injected skin samples of Example 14
Method: To better define the identity of the infiltrating cells seen in Example 14 (Table 18), the same samples were analyzed by immunohistochemistry using antibodies specific for different cell types. These antibodies included: CD68 (expressed on macrophages, neutrophils and dendritic cells), MHC II (antigen-presenting cells, e.g. macrophages and dendritic cells), HAM-56 (macrophages), fascin (dendritic cells, endothelial cells and epithelial cells), elastase (neutrophils), cytokeratin (epithelial cells), CD3 (T cells), CD20 (B cells), and CD1a (Langerhans cells).

B1: mC10: chemokine obtained from R&D Systems (protein, UniProt P27784 22-116, looked up)
C-C motif chemokine 6: GLIQEMEKEDRRYNPPIIHQGFQDTSSDCCFSYATQIPCKRFIYYFPTSGGCIKPGIIFISRRGTQVCADPSDRRVQRCLSTLKQGPRSGNKVIA
Dendritic cell infiltration Score (dendritic cells; BALBc mice, 2 μg, 6 hours): 2 | Dendritic cell infiltration Score (dendritic cells; BALBc mice, 2 μg, 30 hours): 3 and 2 | Dendritic cell infiltration Score (dendritic cells; BALBc mice, 20 μg, 6 hours): 2 | Dendritic cell infiltration Score (dendritic cells; C57B1/6 mice, 2 μg dose, 6 hours, 0 none, 1 slight, 2 mild, 3 moderate, 4 severe, one animal per line): 1 (2×) and 2 | Dendritic cell infiltration Score (dendritic cells; C57B1/6 mice, 2 μg dose, 30 hours): 2 and 1 | Dendritic cell infiltration Score (dendritic cells; C57B1/6 mice, 2 μg dose, 51 hours): 0 | infiltration of DEC-205-labeled cells (dendritic cells; summary of Tables 15, 16 and 17): excellent infiltration | Mononuclear cell infiltration score (mononuclear cells; 8 μg, 24 hours): 1 | Mononuclear cell infiltration score (mononuclear cells; 8 μg, 48 hours): 0 | Mononuclear cell infiltration score (mononuclear cells; 20 μg, 24 hours): 0 | Mononuclear cell infiltration score (mononuclear cells; 20 μg, 48 hours): 0 | Mononuclear cell infiltration score (mononuclear cells; 60 μg intradermally, 24 hours, scale 0 (very mild) to 5 (florid)): 0 | Mononuclear cell infiltration score (mononuclear cells; 60 μg, 48 hours): 0 | cell infiltration, in words (mononuclear cells; summary of Table 18): little to no infiltration | identity of infiltrating cells (infiltrating cells): primarily antigen-presenting cells, including macrophages and dendritic cells, but few neutrophils
